# From patent US20180273587A1 (AILERON THERAPEUTICS, published 2018)
# Positions of bridges follow the written chain, without caps; N, C: chain ends. Non-standard residues stand in square brackets, D forms with d. R8 = C=CCCCCCC[C@@](C)(N)C(=O)O; S5 = C=CCCC[C@](C)(N)C(=O)O
# B1: SEQ ID NO: 1651 (peptide)
# peptide: Ac-IWIAAALR[R8]IGDEFN[S5]YYA-NH2
# modifications: staple 9-16
# SMILES: CC[C@H](C)[C@H](NC(C)=O)C(=O)N[C@@H](Cc1c[nH]c2ccccc12)C(=O)N[C@H](C(=O)N[C@@H](C)C(=O)N[C@@H](C)C(=O)N[C@@H](C)C(=O)N[C@@H](CC(C)C)C(=O)N[C@@H](CCCNC(=N)N)C(=O)N[C@]1(C)CCCCCCC=CCCC[C@@](C)(C(=O)N[C@@H](Cc2ccc(O)cc2)C(=O)N[C@@H](Cc2ccc(O)cc2)C(=O)N[C@@H](C)C(N)=O)NC(=O)[C@H](CC(N)=O)NC(=O)[C@H](Cc2ccccc2)NC(=O)[C@H](CCC(=O)O)NC(=O)[C@H](CC(=O)O)NC(=O)CNC(=O)[C@H]([C@@H](C)CC)NC1=O)[C@@H](C)CC
# B2: SEQ ID NO: 1665 (peptide)
# peptide: Ac-IWIAQALR[R8]IADAFN[S5]YYA-NH2
# modifications: staple 9-16
# SMILES: CC[C@H](C)[C@H](NC(C)=O)C(=O)N[C@@H](Cc1c[nH]c2ccccc12)C(=O)N[C@H](C(=O)N[C@@H](C)C(=O)N[C@@H](CCC(N)=O)C(=O)N[C@@H](C)C(=O)N[C@@H](CC(C)C)C(=O)N[C@@H](CCCNC(=N)N)C(=O)N[C@]1(C)CCCCCCC=CCCC[C@@](C)(C(=O)N[C@@H](Cc2ccc(O)cc2)C(=O)N[C@@H](Cc2ccc(O)cc2)C(=O)N[C@@H](C)C(N)=O)NC(=O)[C@H](CC(N)=O)NC(=O)[C@H](Cc2ccccc2)NC(=O)[C@H](C)NC(=O)[C@H](CC(=O)O)NC(=O)[C@H](C)NC(=O)[C@H]([C@@H](C)CC)NC1=O)[C@@H](C)CC
# B3: SEQ ID NO: 1652 (peptide)
# peptide: Ac-IWIAAALR[R8]IGDQFN[S5]YYA-NH2
# modifications: staple 9-16
# SMILES: CC[C@H](C)[C@H](NC(C)=O)C(=O)N[C@@H](Cc1c[nH]c2ccccc12)C(=O)N[C@H](C(=O)N[C@@H](C)C(=O)N[C@@H](C)C(=O)N[C@@H](C)C(=O)N[C@@H](CC(C)C)C(=O)N[C@@H](CCCNC(=N)N)C(=O)N[C@]1(C)CCCCCCC=CCCC[C@@](C)(C(=O)N[C@@H](Cc2ccc(O)cc2)C(=O)N[C@@H](Cc2ccc(O)cc2)C(=O)N[C@@H](C)C(N)=O)NC(=O)[C@H](CC(N)=O)NC(=O)[C@H](Cc2ccccc2)NC(=O)[C@H](CCC(N)=O)NC(=O)[C@H](CC(=O)O)NC(=O)CNC(=O)[C@H]([C@@H](C)CC)NC1=O)[C@@H](C)CC
# B4: SEQ ID NO: 1653 (peptide)
# peptide: Ac-IWIAAALR[R8]IGDAFN[S5]YYA-NH2
# modifications: staple 9-16
# SMILES: CC[C@H](C)[C@H](NC(C)=O)C(=O)N[C@@H](Cc1c[nH]c2ccccc12)C(=O)N[C@H](C(=O)N[C@@H](C)C(=O)N[C@@H](C)C(=O)N[C@@H](C)C(=O)N[C@@H](CC(C)C)C(=O)N[C@@H](CCCNC(=N)N)C(=O)N[C@]1(C)CCCCCCC=CCCC[C@@](C)(C(=O)N[C@@H](Cc2ccc(O)cc2)C(=O)N[C@@H](Cc2ccc(O)cc2)C(=O)N[C@@H](C)C(N)=O)NC(=O)[C@H](CC(N)=O)NC(=O)[C@H](Cc2ccccc2)NC(=O)[C@H](C)NC(=O)[C@H](CC(=O)O)NC(=O)CNC(=O)[C@H]([C@@H](C)CC)NC1=O)[C@@H](C)CC
# B5: SEQ ID NO: 1667 (peptide)
# peptide: Ac-IWIAQALR[R8]AGDAFN[S5]YYA-NH2
# modifications: staple 9-16
# SMILES: CC[C@H](C)[C@H](NC(C)=O)C(=O)N[C@@H](Cc1c[nH]c2ccccc12)C(=O)N[C@H](C(=O)N[C@@H](C)C(=O)N[C@@H](CCC(N)=O)C(=O)N[C@@H](C)C(=O)N[C@@H](CC(C)C)C(=O)N[C@@H](CCCNC(=N)N)C(=O)N[C@]1(C)CCCCCCC=CCCC[C@@](C)(C(=O)N[C@@H](Cc2ccc(O)cc2)C(=O)N[C@@H](Cc2ccc(O)cc2)C(=O)N[C@@H](C)C(N)=O)NC(=O)[C@H](CC(N)=O)NC(=O)[C@H](Cc2ccccc2)NC(=O)[C@H](C)NC(=O)[C@H](CC(=O)O)NC(=O)CNC(=O)[C@H](C)NC1=O)[C@@H](C)CC
# B6: SEQ ID NO: 1666 (peptide)
# peptide: Ac-IWIAQALR[R8]IADQFN[S5]YYA-NH2
# modifications: staple 9-16
# SMILES: CC[C@H](C)[C@H](NC(C)=O)C(=O)N[C@@H](Cc1c[nH]c2ccccc12)C(=O)N[C@H](C(=O)N[C@@H](C)C(=O)N[C@@H](CCC(N)=O)C(=O)N[C@@H](C)C(=O)N[C@@H](CC(C)C)C(=O)N[C@@H](CCCNC(=N)N)C(=O)N[C@]1(C)CCCCCCC=CCCC[C@@](C)(C(=O)N[C@@H](Cc2ccc(O)cc2)C(=O)N[C@@H](Cc2ccc(O)cc2)C(=O)N[C@@H](C)C(N)=O)NC(=O)[C@H](CC(N)=O)NC(=O)[C@H](Cc2ccccc2)NC(=O)[C@H](CCC(N)=O)NC(=O)[C@H](CC(=O)O)NC(=O)[C@H](C)NC(=O)[C@H]([C@@H](C)CC)NC1=O)[C@@H](C)CC
# B7: SEQ ID NO: 1662 (peptide)
# peptide: Ac-IWIAQALR[R8]IGDAIN[S5]YYA-NH2
# modifications: staple 9-16
# SMILES: CC[C@H](C)[C@H](NC(C)=O)C(=O)N[C@@H](Cc1c[nH]c2ccccc12)C(=O)N[C@H](C(=O)N[C@@H](C)C(=O)N[C@@H](CCC(N)=O)C(=O)N[C@@H](C)C(=O)N[C@@H](CC(C)C)C(=O)N[C@@H](CCCNC(=N)N)C(=O)N[C@]1(C)CCCCCCC=CCCC[C@@](C)(C(=O)N[C@@H](Cc2ccc(O)cc2)C(=O)N[C@@H](Cc2ccc(O)cc2)C(=O)N[C@@H](C)C(N)=O)NC(=O)[C@H](CC(N)=O)NC(=O)[C@H]([C@@H](C)CC)NC(=O)[C@H](C)NC(=O)[C@H](CC(=O)O)NC(=O)CNC(=O)[C@H]([C@@H](C)CC)NC1=O)[C@@H](C)CC
# B8: SEQ ID NO: 1664 (peptide)
# peptide: Ac-IWIAQAAR[R8]IGDAAN[S5]YYA-NH2
# modifications: staple 9-16
# SMILES: CC[C@H](C)[C@H](NC(C)=O)C(=O)N[C@@H](Cc1c[nH]c2ccccc12)C(=O)N[C@H](C(=O)N[C@@H](C)C(=O)N[C@@H](CCC(N)=O)C(=O)N[C@@H](C)C(=O)N[C@@H](C)C(=O)N[C@@H](CCCNC(=N)N)C(=O)N[C@]1(C)CCCCCCC=CCCC[C@@](C)(C(=O)N[C@@H](Cc2ccc(O)cc2)C(=O)N[C@@H](Cc2ccc(O)cc2)C(=O)N[C@@H](C)C(N)=O)NC(=O)[C@H](CC(N)=O)NC(=O)[C@H](C)NC(=O)[C@H](C)NC(=O)[C@H](CC(=O)O)NC(=O)CNC(=O)[C@H]([C@@H](C)CC)NC1=O)[C@@H](C)CC
# B9: SEQ ID NO: 1660 (peptide)
# peptide: Ac-IWIAQALQ[R8]IGDQFN[S5]YYA-NH2
# modifications: staple 9-16
# SMILES: CC[C@H](C)[C@H](NC(C)=O)C(=O)N[C@@H](Cc1c[nH]c2ccccc12)C(=O)N[C@H](C(=O)N[C@@H](C)C(=O)N[C@@H](CCC(N)=O)C(=O)N[C@@H](C)C(=O)N[C@@H](CC(C)C)C(=O)N[C@@H](CCC(N)=O)C(=O)N[C@]1(C)CCCCCCC=CCCC[C@@](C)(C(=O)N[C@@H](Cc2ccc(O)cc2)C(=O)N[C@@H](Cc2ccc(O)cc2)C(=O)N[C@@H](C)C(N)=O)NC(=O)[C@H](CC(N)=O)NC(=O)[C@H](Cc2ccccc2)NC(=O)[C@H](CCC(N)=O)NC(=O)[C@H](CC(=O)O)NC(=O)CNC(=O)[C@H]([C@@H](C)CC)NC1=O)[C@@H](C)CC
# B10: SEQ ID NO: 1661 (peptide)
# peptide: Ac-IWIAQALR[R8]IGDAAN[S5]YYA-NH2
# modifications: staple 9-16
# SMILES: CC[C@H](C)[C@H](NC(C)=O)C(=O)N[C@@H](Cc1c[nH]c2ccccc12)C(=O)N[C@H](C(=O)N[C@@H](C)C(=O)N[C@@H](CCC(N)=O)C(=O)N[C@@H](C)C(=O)N[C@@H](CC(C)C)C(=O)N[C@@H](CCCNC(=N)N)C(=O)N[C@]1(C)CCCCCCC=CCCC[C@@](C)(C(=O)N[C@@H](Cc2ccc(O)cc2)C(=O)N[C@@H](Cc2ccc(O)cc2)C(=O)N[C@@H](C)C(N)=O)NC(=O)[C@H](CC(N)=O)NC(=O)[C@H](C)NC(=O)[C@H](C)NC(=O)[C@H](CC(=O)O)NC(=O)CNC(=O)[C@H]([C@@H](C)CC)NC1=O)[C@@H](C)CC
# B11: SEQ ID NO: 1659 (peptide)
# peptide: Ac-IWIAQALQ[R8]IGDAFN[S5]YYA-NH2
# modifications: staple 9-16
# SMILES: CC[C@H](C)[C@H](NC(C)=O)C(=O)N[C@@H](Cc1c[nH]c2ccccc12)C(=O)N[C@H](C(=O)N[C@@H](C)C(=O)N[C@@H](CCC(N)=O)C(=O)N[C@@H](C)C(=O)N[C@@H](CC(C)C)C(=O)N[C@@H](CCC(N)=O)C(=O)N[C@]1(C)CCCCCCC=CCCC[C@@](C)(C(=O)N[C@@H](Cc2ccc(O)cc2)C(=O)N[C@@H](Cc2ccc(O)cc2)C(=O)N[C@@H](C)C(N)=O)NC(=O)[C@H](CC(N)=O)NC(=O)[C@H](Cc2ccccc2)NC(=O)[C@H](C)NC(=O)[C@H](CC(=O)O)NC(=O)CNC(=O)[C@H]([C@@H](C)CC)NC1=O)[C@@H](C)CC
# B12: SEQ ID NO: 1654 (peptide)
# peptide: Ac-IWIAQALR[R8]IGDAFA[S5]YYA-NH2
# modifications: staple 9-16
# SMILES: CC[C@H](C)[C@H](NC(C)=O)C(=O)N[C@@H](Cc1c[nH]c2ccccc12)C(=O)N[C@H](C(=O)N[C@@H](C)C(=O)N[C@@H](CCC(N)=O)C(=O)N[C@@H](C)C(=O)N[C@@H](CC(C)C)C(=O)N[C@@H](CCCNC(=N)N)C(=O)N[C@]1(C)CCCCCCC=CCCC[C@@](C)(C(=O)N[C@@H](Cc2ccc(O)cc2)C(=O)N[C@@H](Cc2ccc(O)cc2)C(=O)N[C@@H](C)C(N)=O)NC(=O)[C@H](C)NC(=O)[C@H](Cc2ccccc2)NC(=O)[C@H](C)NC(=O)[C@H](CC(=O)O)NC(=O)CNC(=O)[C@H]([C@@H](C)CC)NC1=O)[C@@H](C)CC
# Biological target: T1, MCL-1 (UniProt Q07820 172-327, limits assumed)
# T1 construct: also called Myeloid cell leukemia 1
# T1 sequence (Q07820 172-327 limits assumed): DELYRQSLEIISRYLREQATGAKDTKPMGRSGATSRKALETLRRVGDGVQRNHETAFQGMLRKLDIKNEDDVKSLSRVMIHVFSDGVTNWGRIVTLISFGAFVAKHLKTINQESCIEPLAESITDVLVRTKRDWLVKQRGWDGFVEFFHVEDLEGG
# Assay: Ki table, method not stated
row,Ki,Binder
1,1 nM,B1
2,96.3 nM,B2
3,6 nM,B3
4,6.7 nM,B4
5,183 nM,B5
6,116 nM,B6
7,3.4 nM,B7
8,177 nM,B8
9,14.8 nM,B9
10,7.5 nM,B10
11,76.2 nM,B11
12,7.4 nM,B12

# Biological target: BCL-XL (UniProt Q07817 1-209)
# Sequence (Q07817 1-209): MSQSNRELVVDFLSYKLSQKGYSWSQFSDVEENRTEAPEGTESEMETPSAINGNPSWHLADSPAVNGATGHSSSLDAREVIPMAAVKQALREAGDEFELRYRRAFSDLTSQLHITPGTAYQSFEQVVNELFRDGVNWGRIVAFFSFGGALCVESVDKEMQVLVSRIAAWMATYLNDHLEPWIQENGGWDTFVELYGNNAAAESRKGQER
# Assay: Ki table, method not stated
row,Ki,Binder
1,1 nM,B1
2,7.7 nM,B2
3,4 nM,B3
4,25.6 nM,B4
5,18.1 nM,B5
6,7.7 nM,B6
7,14.1 nM,B7
8,154 nM,B8
9,6.3 nM,B9
10,402 nM,B10
11,325 nM,B11
12,55.7 nM,B12

# Biological target: BCL-2 (UniProt P10415 1-217, limits assumed)
# Sequence (P10415 1-217 limits assumed): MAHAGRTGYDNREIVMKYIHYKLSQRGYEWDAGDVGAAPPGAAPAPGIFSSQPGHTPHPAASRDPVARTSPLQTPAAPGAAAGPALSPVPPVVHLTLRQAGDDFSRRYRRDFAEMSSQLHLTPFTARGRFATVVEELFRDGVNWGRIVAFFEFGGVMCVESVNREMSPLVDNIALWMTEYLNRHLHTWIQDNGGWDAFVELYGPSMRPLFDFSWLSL
# Assay: Ki table, method not stated
row,Ki,Binder
1,6 nM,B1
2,84 nM,B2
3,22 nM,B3
4,65.4 nM,B4
5,59.6 nM,B5
6,25.6 nM,B6
7,113 nM,B7
8,502 nM,B8
9,27.5 nM,B9
10,140 nM,B10
11,365 nM,B11
12,115 nM,B12
